From patent publication US20160368985A1 (published 2016)

Target: 7D8.RbIgG
Test: SPR (Biacore)

Kd: 1.89 nM
B1: CyFcRH5 (receptor)
chain: QFVRTYKSHFLQPPWTTVFRGERVNLTCKGFGFYSSQKTKWYYRHLGKEISRETQKNTLEVQESGEYRCQAQGSPLSSPVSLDFSSASLILQAPLSVFEGDSVVLRCRAKAEVTLKTTIYKNENVLAFLNKSTDFHISHASLKDNGAYRCTGYKETCCLVSSNTVKIQVQESFTRPVLRVSSFQPISGSPVTLTCETQLSLERSDVPLQFCFFRNDQMLGSGCSLSPKFRITAMWSKDSGSYWCKAATMCYDTTSNSLRSWIQVLIPASHPVLTLSPEKALNFEGTKVKLHCETQEDSLRTLYKFYHDGVPLRYKSVRCEKGASISFSLTTEHSGNYYCTADNGHGAKPSEAVSLSVTVPVSRPVLTLSSAEDLISEGAKLTLHCEAQRGSLPIVYQFHHENASLGNRSAHSAGGVAISFSLTADHSGNYYCTANNGFGPQRSEAVSLSITVPVSRPVLTLSSAEALTFEGATVTLYCEVQRGSPRILYQFYHEDVPLGSNSTPSVGKVSFSFSLTAAHSGNYYCTADNGFGPQRSEAVSLFVTVPVSRPILTLRVPRAQAVVGDLLELRCEALRGSPPIMYWFYHEDVTLGSSSVPSGGEASFNLSLTAEHSGNYSCEANNGLVAQHSDTISLSVIVPVSRPILTFRAPRAQAVVGDLLELHCEALRGSSPILYWFYHEDVTLGKISAPSGGGAYFNLSLTTEHSGIYSCEADNGLEAQRSEMVTLKVAVPVSRPVLTLRAPRAQVAVGDLLELHCEALRGSPLILYQFYHEDVTLGNSSALSGGAFFNLSLTAEHGNYSCEADNGLGAQRSETVTLYLTGLTENRSGPVATG
